Patent US20220347267A1, “METHODS TO IMPROVE PATIENT RESPONSE TO IMMUNE CHECKPOINT INHIBITORS AND FUNCTIONAL TESTS TO PREDICT RESPONSE” (Biomarker Strategies, LLC, priority 2019, published 2022)

How the values were obtained:
Assay type in all cases: cell-based, human
H1299 cells = assay: PD-L1 confocal microscopy, IFNγ stimulation
Description: (§1) To obtain fluorescent specimens, similar procedures are used when compared to flow cytometry. The sample is stained with a primary antibody that is specific for a protein of interest. The primary antibody can be conjugated to a fluorescent molecule or a secondary antibody can be used that attaches to the primary antibody. For intracellular staining of cells, the specimen can be fixed and permeabilized using methanol, formalin or a fixative containing a detergent. Subsequently, the specimen is stained with primary and/or secondary antibodies. For this dataset, samples were stained for PD-L1 in suspension using the same protocol that was used for the flow cytometry dataset. The protocol used was as follows:
(§2) Samples (150 uL per tube) were first incubated with a blocking reagent (BD cat #564219, Lot #9305316) at 1:20 for 15 min at room temperature. Alexa 488-conjugated PD-L1 antibody (CST cat #25048, Lot #2) and Alexa 488-conjugated isotype antibody (CST cat #2975, Lot #16) were added to experimental samples and isotype control samples, respectively, at a manufacturer recommended dilution of 1:50 and the samples were incubated for 30 min at room temperature. Other fluorophore-conjugates and PD-L1 antibodies, including those targeting different epitopes, can be readily used. Additionally, antibodies detecting other biomarkers with appropriate processing (e.g. permeabilization of cells) to predict response (e.g. p-STAT-1) can be used. Following the incubation with an antibody, 1 mL of 2% FBS in PBS was added to each tube to dilute the antibody. Samples were then centrifuged at 200 rcf for 5 min. Supernatant was carefully aspirated and 200 uL of 10% neutral buffered formalin (NBF) was added. Samples were then fixed for 10 min at room temperature. NBF was diluted with 1 mL of 2% FBS in PBS and the samples were centrifuged at 200 rcf for 5 min. Supernatant was aspirated and the cells were resuspended in 0.5 mL of 2% FBS in PBS for flow cytometric analysis. In this experiment, 10% NBF was used to fix cells, but other fixatives, for example, 4% paraformaldehyde can be used. For localization experiments an anti-phosphotyrosine antibody, anti-human/mouse, PE-Vio® 770 (Miltenyi Biotec, Cat #130-109-112) and an anti-PD-L1 antibody, anti-human, Brilliant Violet 650 (BV650; BD Biosciences, Cat #563740) were used. […]
(§3) PD-L1 was assessed in four cell lines (FIG. 35A). PD-L1 was quantified by analyzing FITC-PD-L1 using an 8-bit photomultiplier tube and quantified as raw arbitrary units (FIG. 35B). The PD-L1 expression of the four cell lines was quantified in treated and untreated conditions. […] Thus, PD-L1 expression can be measured qualitatively and quantitatively using confocal microscopy and other fluorescent microscopy techniques.

H1650 cells [1] = assay: PD-L1 confocal microscopy, IFNγ stimulation
Description: as §1, §2, §3

H460 cells [2] = assay: PD-L1 confocal microscopy, IFNγ stimulation
Description: as §1, §2, §3

SKMES1 cells = assay: PD-L1 confocal microscopy, IFNγ stimulation
Description: as §1, §2, §3

H1650 cells [3] = assay: PD-L1 mRNA one step RT-qPCR, IFNγ treatment; details: 10 ng/mL IFNγ for 24h, 2^-ΔΔCt normalized by GAPDH
Procedure: (§4) Additionally, the presence, abundance and ratio of different PD-L1 mRNA forms can be used to predict response. As way of example, PD-L1 mRNA were measured using primers amplifying within exon 3-4 (extracellular region of the transcribed protein that interacts with PD1). Other amplicons detecting the same or other forms can be used readily. For example, amplicons corresponding to the transmembrane and cytoplasmic tail to confirm full length plasma membrane bound protein is transcribed, or regions overlapping with either PD1 or anti-PD-L1 binding sites. Five cell lines (H460, H1299, H1650, H2126 and SKMES1) were treated with vehicle or 10 ng/mL IFNγ for 24h. More complex sample types, including cells isolated from solid tumors from preclinical and clinical cancers be used. Other time points, including those as early as 1h for IRF or 4h for PD-L1, can be readily used. RNA was isolated from the cells using an NEB kit (Cat #T2010) per the manufacturer's instructions. Isolated RNA was estimated using a NanoDrop […] and checked for its quality by checking the 260/280 ratio. RNA concentration was brought to 40 ng/uL in all the samples to take equal quantity for further steps of RT and real time PCR. One step RT-qPCR was performed using a Power SYBR Green RNA to Ct One step kit (Cat #4931198) as per the manufacturer's instructions. A 200 ng RNA template was taken for total 20 uL reaction per well in 96 well PCR microplate for Roche 480 Light cycler. The following primer pairs (Sigma) were used for PD-L1 and GAPDH and were used at a concentration in the reaction mixture of 400 nM:
(§5) A Roche 480 Light cycler was used for performing the one step real time PCR. Data was analyzed using 2^-ΔΔCt method normalized by GAPDH for relative levels. Alternative housekeeper genes may be readily used.

H460 cells [4] = assay: PD-L1 mRNA one step RT-qPCR, IFNγ treatment; details: 10 ng/mL IFNγ for 24h, normalized by GAPDH
Procedure: as §4, §5

B1: IFNγ: human IFNγ, modulator (10 ng/ml; Sigma Aldrich) (protein, UniProt P01579 24-161, looked up)
Interferon gamma: QDPYVKEAENLKKYFNAGHSDVADNGTLFLGILKNWKEESDRKIMQSQIVSFYFKLFKNFKDDQSIQKSVETIKEDMNVKFFNSNKKKRDDFEKLTNYSVTDLNVQRKAIHELIQVMAELSPAAKTGKRKRSQMLFRG
With B1 the “PD-L1 expression by confocal microscopy, untreated and IFNγ treated” value (shortened to “PD-L1 expression by confocal microscopy”) (H1299 cells) was “negative”, the “PD-L1 expression by confocal microscopy” value (H1650 cells [1]) was “negative” and the “PD-L1 expression by confocal microscopy” value (H460 cells [2]) was “adaptive expression”. The “PD-L1 expression by confocal microscopy” value (SKMES1 cells) was “innate expression”, the “relative increase of PD-L1 mRNA upon IFNγ exposure” value (H1650 cells [3]) was 2.2 fold and the “change of PD-L1 mRNA upon IFNγ exposure” value (H460 cells [4]) was “decrease”.
